# According to the supplement of paper PMC9112550, “Optimization of the antimicrobial peptide Bac7 by deep mutational scanning” (BMC Biology, 2022):
# Tested on: Escherichia coli TOP10
# Experiment: shrunken log2 fold change of peptide-encoding DNA abundance (4.5 h post-induction vs induction); higher = less antimicrobial activity (less host growth inhibition)
# Conditions: time post-induction: 4.5 h; library: site-saturation at positions 5, 18, 19, 20
# 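Further: peptides expressed intracellularly from a pBAD plasmid library in pooled LB shake-flask culture, induced with 0.3% L-arabinose, DNA abundance read by NGS, three biological replicates, DESeq2 with apeglm shrinkage.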
sequence,measurement,value
RRIRMRPPRLPRPRPRPSQVPRP,shrunken log2 fold change,-0.0436
RRIRARPPRLPRPRPRPCLWPRP,shrunken log2 fold change,-0.199
RRIRHRPPRLPRPRPRPLTEPRP,shrunken log2 fold change,-0.342
RRIRLRPPRLPRPRPRPRDVPRP,shrunken log2 fold change,0.176
RRIRPRPPRLPRPRPRPKNIPRP,shrunken log2 fold change,-0.719
RRIRIRPPRLPRPRPRPCQYPRP,shrunken log2 fold change,-1.06
RRIRARPPRLPRPRPRPVDSPRP,shrunken log2 fold change,-0.0786
RRIRKRPPRLPRPRPRPAPPPRP,shrunken log2 fold change,1.04
RRIRLRPPRLPRPRPRPETRPRP,shrunken log2 fold change,0.0057
RRIRPRPPRLPRPRPRPQVVPRP,shrunken log2 fold change,-0.00675
RRIRSRPPRLPRPRPRPRLRPRP,shrunken log2 fold change,0.287
RRIRCRPPRLPRPRPRPPLLPRP,shrunken log2 fold change,-0.0189
RRIRHRPPRLPRPRPRPDLDPRP,shrunken log2 fold change,-0.0331
RRIRKRPPRLPRPRPRPQWCPRP,shrunken log2 fold change,0.149
RRIRQRPPRLPRPRPRPGGMPRP,shrunken log2 fold change,0.2
RRIRARPPRLPRPRPRPNRNPRP,shrunken log2 fold change,-0.266
RRIRERPPRLPRPRPRPMNKPRP,shrunken log2 fold change,-0.765
RRIRLRPPRLPRPRPRPKRLPRP,shrunken log2 fold change,-0.0581
RRIRERPPRLPRPRPRPEAQPRP,shrunken log2 fold change,0.227
RRIRTRPPRLPRPRPRPWFWPRP,shrunken log2 fold change,0.0569
RRIRARPPRLPRPRPRPYSPPRP,shrunken log2 fold change,-0.409
RRIRYRPPRLPRPRPRPPQMPRP,shrunken log2 fold change,0.0297
RRIRMRPPRLPRPRPRPIDEPRP,shrunken log2 fold change,-0.0525
RRIRRRPPRLPRPRPRPMIPPRP,shrunken log2 fold change,-0.062
RRIRSRPPRLPRPRPRPCIGPRP,shrunken log2 fold change,-0.18
RRIRMRPPRLPRPRPRPWNYPRP,shrunken log2 fold change,-0.203
RRIRDRPPRLPRPRPRPNTGPRP,shrunken log2 fold change,-0.098
RRIRWRPPRLPRPRPRPYSHPRP,shrunken log2 fold change,-1.09
RRIRHRPPRLPRPRPRPIKMPRP,shrunken log2 fold change,-0.0865
RRIRRRPPRLPRPRPRPYRDPRP,shrunken log2 fold change,-0.111
RRIRLRPPRLPRPRPRPDFGPRP,shrunken log2 fold change,0.153
RRIRNRPPRLPRPRPRPMWDPRP,shrunken log2 fold change,-0.021
RRIRIRPPRLPRPRPRPRHEPRP,shrunken log2 fold change,0.0234
RRIRNRPPRLPRPRPRPEFVPRP,shrunken log2 fold change,0.189
RRIRERPPRLPRPRPRPWFIPRP,shrunken log2 fold change,-0.00655
RRIRGRPPRLPRPRPRPPKFPRP,shrunken log2 fold change,0.0991
RRIRFRPPRLPRPRPRPIIWPRP,shrunken log2 fold change,-0.273
RRIRTRPPRLPRPRPRPHSGPRP,shrunken log2 fold change,-0.166
RRIRPRPPRLPRPRPRPWICPRP,shrunken log2 fold change,-0.182
RRIRLRPPRLPRPRPRPDGYPRP,shrunken log2 fold change,0.0385
RRIRNRPPRLPRPRPRPSGCPRP,shrunken log2 fold change,-0.151
RRIRGRPPRLPRPRPRPTQEPRP,shrunken log2 fold change,1.38
RRIRWRPPRLPRPRPRPQHYPRP,shrunken log2 fold change,-0.574
RRIRARPPRLPRPRPRPCYHPRP,shrunken log2 fold change,-0.0657
RRIRQRPPRLPRPRPRPSIYPRP,shrunken log2 fold change,-0.988
RRIRMRPPRLPRPRPRPSCDPRP,shrunken log2 fold change,0.444
RRIRQRPPRLPRPRPRPQRSPRP,shrunken log2 fold change,0.0623
RRIRERPPRLPRPRPRPILMPRP,shrunken log2 fold change,-0.317
RRIRMRPPRLPRPRPRPFAMPRP,shrunken log2 fold change,0.171
RRIRVRPPRLPRPRPRPVHAPRP,shrunken log2 fold change,-0.189
RRIRFRPPRLPRPRPRPIIVPRP,shrunken log2 fold change,-0.394
RRIRDRPPRLPRPRPRPLCWPRP,shrunken log2 fold change,0.824
RRIRVRPPRLPRPRPRPGSDPRP,shrunken log2 fold change,-0.00601
RRIRWRPPRLPRPRPRPSMFPRP,shrunken log2 fold change,-0.0441
RRIRARPPRLPRPRPRPYQKPRP,shrunken log2 fold change,-0.0277
RRIRVRPPRLPRPRPRPDKHPRP,shrunken log2 fold change,-0.108
RRIRDRPPRLPRPRPRPCYMPRP,shrunken log2 fold change,-0.192
RRIRMRPPRLPRPRPRPNFCPRP,shrunken log2 fold change,0.0533
RRIRERPPRLPRPRPRPYSTPRP,shrunken log2 fold change,-0.335
RRIRGRPPRLPRPRPRPMYMPRP,shrunken log2 fold change,-0.169
RRIRKRPPRLPRPRPRPWHMPRP,shrunken log2 fold change,-0.00936
RRIRRRPPRLPRPRPRPYMSPRP,shrunken log2 fold change,-0.054
RRIRVRPPRLPRPRPRPCKLPRP,shrunken log2 fold change,-0.453
RRIRMRPPRLPRPRPRPKNLPRP,shrunken log2 fold change,-0.102
RRIRLRPPRLPRPRPRPPIVPRP,shrunken log2 fold change,-0.531
RRIRGRPPRLPRPRPRPFVRPRP,shrunken log2 fold change,0.0432
RRIRLRPPRLPRPRPRPRPAPRP,shrunken log2 fold change,0.454
RRIRGRPPRLPRPRPRPLSRPRP,shrunken log2 fold change,1.17
RRIRMRPPRLPRPRPRPKRMPRP,shrunken log2 fold change,1.06
RRIRIRPPRLPRPRPRPTRSPRP,shrunken log2 fold change,-0.00877
RRIRGRPPRLPRPRPRPYFAPRP,shrunken log2 fold change,0.357
RRIRVRPPRLPRPRPRPWLGPRP,shrunken log2 fold change,-0.0696
RRIRNRPPRLPRPRPRPASFPRP,shrunken log2 fold change,-0.00784
RRIRRRPPRLPRPRPRPQKDPRP,shrunken log2 fold change,-0.151
RRIRIRPPRLPRPRPRPYDKPRP,shrunken log2 fold change,-0.224
RRIRQRPPRLPRPRPRPQTTPRP,shrunken log2 fold change,-0.0245
RRIRSRPPRLPRPRPRPQKRPRP,shrunken log2 fold change,-0.343
RRIRARPPRLPRPRPRPFFDPRP,shrunken log2 fold change,0.107
RRIRFRPPRLPRPRPRPGIKPRP,shrunken log2 fold change,-0.137
RRIRWRPPRLPRPRPRPDKSPRP,shrunken log2 fold change,-0.135
RRIRSRPPRLPRPRPRPLEQPRP,shrunken log2 fold change,0.0284
RRIRQRPPRLPRPRPRPTYYPRP,shrunken log2 fold change,-0.524
RRIRGRPPRLPRPRPRPYQEPRP,shrunken log2 fold change,0.0063
RRIRGRPPRLPRPRPRPTVHPRP,shrunken log2 fold change,1.77
RRIRIRPPRLPRPRPRPLCVPRP,shrunken log2 fold change,-0.551
RRIRRRPPRLPRPRPRPHLGPRP,shrunken log2 fold change,-0.044
RRIRDRPPRLPRPRPRPFNFPRP,shrunken log2 fold change,-0.703
RRIRVRPPRLPRPRPRPNFEPRP,shrunken log2 fold change,0.178
RRIRLRPPRLPRPRPRPQDHPRP,shrunken log2 fold change,-0.203
RRIRFRPPRLPRPRPRPVPYPRP,shrunken log2 fold change,-0.693
RRIRNRPPRLPRPRPRPGNQPRP,shrunken log2 fold change,-0.00674
RRIRPRPPRLPRPRPRPSTYPRP,shrunken log2 fold change,-0.415
RRIRDRPPRLPRPRPRPMFCPRP,shrunken log2 fold change,2.64
RRIRKRPPRLPRPRPRPSIHPRP,shrunken log2 fold change,-0.551
RRIRPRPPRLPRPRPRPRIRPRP,shrunken log2 fold change,0.0752
RRIRPRPPRLPRPRPRPIAAPRP,shrunken log2 fold change,0.621
RRIRKRPPRLPRPRPRPKIIPRP,shrunken log2 fold change,-0.135
RRIRGRPPRLPRPRPRPMAYPRP,shrunken log2 fold change,0.0863
RRIRPRPPRLPRPRPRPTVPPRP,shrunken log2 fold change,-0.0252
RRIRIRPPRLPRPRPRPDHNPRP,shrunken log2 fold change,-0.919
RRIRQRPPRLPRPRPRPTEYPRP,shrunken log2 fold change,-0.401
RRIRMRPPRLPRPRPRPINVPRP,shrunken log2 fold change,-0.0528
RRIRPRPPRLPRPRPRPDYEPRP,shrunken log2 fold change,-0.136
RRIRNRPPRLPRPRPRPSNAPRP,shrunken log2 fold change,-0.343
RRIRDRPPRLPRPRPRPRHIPRP,shrunken log2 fold change,-0.25
RRIRWRPPRLPRPRPRPWEAPRP,shrunken log2 fold change,0.396
RRIRMRPPRLPRPRPRPMQQPRP,shrunken log2 fold change,1.38
RRIRIRPPRLPRPRPRPYYDPRP,shrunken log2 fold change,-0.0728
RRIRIRPPRLPRPRPRPWFMPRP,shrunken log2 fold change,-0.503
RRIRLRPPRLPRPRPRPNRCPRP,shrunken log2 fold change,-0.231
RRIRDRPPRLPRPRPRPTSAPRP,shrunken log2 fold change,0.418
RRIRQRPPRLPRPRPRPDETPRP,shrunken log2 fold change,-0.00179
RRIRNRPPRLPRPRPRPEELPRP,shrunken log2 fold change,0.678
RRIRYRPPRLPRPRPRPRDLPRP,shrunken log2 fold change,-0.372
RRIRKRPPRLPRPRPRPHNWPRP,shrunken log2 fold change,0.172
RRIRLRPPRLPRPRPRPTVLPRP,shrunken log2 fold change,-0.126
RRIRERPPRLPRPRPRPKLSPRP,shrunken log2 fold change,-0.173
RRIRPRPPRLPRPRPRPWDFPRP,shrunken log2 fold change,0.122
RRIRTRPPRLPRPRPRPWCRPRP,shrunken log2 fold change,-0.263
RRIRRRPPRLPRPRPRPDMRPRP,shrunken log2 fold change,0.415
RRIRGRPPRLPRPRPRPHSRPRP,shrunken log2 fold change,0.26
RRIRERPPRLPRPRPRPAFPPRP,shrunken log2 fold change,0.295
RRIRKRPPRLPRPRPRPKLAPRP,shrunken log2 fold change,1.58
RRIRFRPPRLPRPRPRPNCDPRP,shrunken log2 fold change,-0.144
RRIRHRPPRLPRPRPRPENQPRP,shrunken log2 fold change,-0.243
RRIRSRPPRLPRPRPRPQAYPRP,shrunken log2 fold change,0.0251
RRIRPRPPRLPRPRPRPTFEPRP,shrunken log2 fold change,0.035
RRIRLRPPRLPRPRPRPAVHPRP,shrunken log2 fold change,-0.149
RRIRRRPPRLPRPRPRPPEWPRP,shrunken log2 fold change,0.539
RRIRERPPRLPRPRPRPFYEPRP,shrunken log2 fold change,-0.498
RRIRSRPPRLPRPRPRPHRRPRP,shrunken log2 fold change,0.0441
RRIRVRPPRLPRPRPRPFHLPRP,shrunken log2 fold change,0.0337
RRIRNRPPRLPRPRPRPCLRPRP,shrunken log2 fold change,-0.0159
RRIRYRPPRLPRPRPRPLCYPRP,shrunken log2 fold change,-1
RRIRVRPPRLPRPRPRPCWKPRP,shrunken log2 fold change,-0.00912
RRIRWRPPRLPRPRPRPQDLPRP,shrunken log2 fold change,0.107
RRIRERPPRLPRPRPRPIMEPRP,shrunken log2 fold change,-0.465
RRIRCRPPRLPRPRPRPSGKPRP,shrunken log2 fold change,-0.327
RRIRDRPPRLPRPRPRPDDWPRP,shrunken log2 fold change,1.08
RRIRKRPPRLPRPRPRPATIPRP,shrunken log2 fold change,0.00392
RRIRYRPPRLPRPRPRPNATPRP,shrunken log2 fold change,-0.222
RRIRHRPPRLPRPRPRPIKVPRP,shrunken log2 fold change,0.172
RRIRERPPRLPRPRPRPDWEPRP,shrunken log2 fold change,0.368
RRIRTRPPRLPRPRPRPMGYPRP,shrunken log2 fold change,0.0627
RRIRCRPPRLPRPRPRPYQVPRP,shrunken log2 fold change,-0.829
RRIRMRPPRLPRPRPRPAHHPRP,shrunken log2 fold change,0.0701
RRIRTRPPRLPRPRPRPERMPRP,shrunken log2 fold change,0.275
RRIRQRPPRLPRPRPRPAHCPRP,shrunken log2 fold change,0.0134
RRIRTRPPRLPRPRPRPAGYPRP,shrunken log2 fold change,0.138
RRIRKRPPRLPRPRPRPGLIPRP,shrunken log2 fold change,0.13
